The text below walks through data of US20260167699A1 (Chugai, published 2026).

Residue numbers refer to the chain shown, from its start.

B1: GpH7-A5/GpH7-B3 variant S324_14T/GpL16-k0 (antibody, human IgG1, kappa)
heavy 1: not shown
heavy 2: not shown
light: DIVMTQSPLSLPVTPGEPASISCQASESLVHSNRNTYLHWYLQKPGQSPQLLIYKVSNRFSGVPDRFSGSGSGTDFTLKISRVEAEDVGVYYCSQNTHVPPTFGQGTKVEIERTVAAPSVFIFPPSDEQLKSGTASVVCLLNNFYPREAKVQWKVDNALQSGNSQESVTEQDSKDSTYSLSSTLTLSKADYEKHKVYACEVTHQGLSSPVTKSFNRGEC
notes: He Ab: heterodimerized IgG1, one H chain mutated
B2: GpH7-A5/GpH7-B3 variant A330_04F/GpL16-k0 (antibody, human IgG1, kappa)
heavy 1: not shown
heavy 2: not shown
light: B1 light
notes: as for B1
B3: GpH7-A5/GpH7-B3 variant A330_07I/GpL16-k0 (antibody, human IgG1, kappa)
heavy 1: not shown
heavy 2: not shown
light: B1 light
notes: as for B1
B4: GpH7-A5/GpH7-B3 variant A327_10E/GpL16-k0 (antibody, human IgG1, kappa)
heavy 1: not shown
heavy 2: not shown
light: B1 light
notes: as for B1
B5: GpH7-A5/GpH7-B3 variant A330_03V/GpL16-k0 (antibody, human IgG1, kappa)
heavy 1: not shown
heavy 2: not shown
light: B1 light
notes: as for B1
B6: GpH7-A5/GpH7-B3 variant A330_08L/GpL16-k0 (antibody, human IgG1, kappa)
heavy 1: not shown
heavy 2: not shown
light: B1 light
notes: as for B1
B7: GpH7-A5/GpH7-B3 variant A330_09D/GpL16-k0 (antibody, human IgG1, kappa)
heavy 1: not shown
heavy 2: not shown
light: B1 light
notes: as for B1
B8: GpH7-A5/GpH7-B3 variant A327_09D/GpL16-k0 (antibody, human IgG1, kappa)
heavy 1: not shown
heavy 2: not shown
light: B1 light
notes: as for B1
B9: GpH7-A5/GpH7-B3 variant A327_06M/GpL16-k0 (antibody, human IgG1, kappa)
heavy 1: not shown
heavy 2: not shown
light: B1 light
notes: as for B1
B10: GpH7-A5/GpH7-B3 variant A327_05P/GpL16-k0 (antibody, human IgG1, kappa)
heavy 1: not shown
heavy 2: not shown
light: B1 light
notes: as for B1
B11: GpH7-A5/GpH7-B3 variant A330_01G/GpL16-k0 (antibody, human IgG1, kappa)
heavy 1: not shown
heavy 2: not shown
light: B1 light
notes: as for B1
B12: GpH7-A5/GpH7-B3 variant A327_20W/GpL16-k0 (antibody, human IgG1, kappa)
heavy 1: not shown
heavy 2: not shown
light: B1 light
notes: as for B1
B13: GpH7-A5/GpH7-B3 variant A327_13S/GpL16-k0 (antibody, human IgG1, kappa)
heavy 1: not shown
heavy 2: not shown
light: B1 light
notes: as for B1
B14: GpH7-A5/GpH7-B3 variant A327_18N/GpL16-k0 (antibody, human IgG1, kappa)
heavy 1: not shown
heavy 2: not shown
light: B1 light
notes: as for B1
B15: GpH7-A5/GpH7-B3 variant A327_19Q/GpL16-k0 (antibody, human IgG1, kappa)
heavy 1: not shown
heavy 2: not shown
light: B1 light
notes: as for B1
B16: GpH7-A5/GpH7-B3 variant S239_19Q/GpL16-k0 (antibody, human IgG1, kappa)
heavy 1: not shown
heavy 2: not shown
light: B1 light
B17: GpH7-A5/GpH7-B3 variant V266_02A/GpL16-k0 (antibody, human IgG1, kappa)
heavy 1: not shown
heavy 2: not shown
light: B1 light
B18: GpH7-A5/GpH7-B3 variant S267_19Q/GpL16-k0 (antibody, human IgG1, kappa)
heavy 1: not shown
heavy 2: not shown
light: B1 light
B19: GpH7-A5/GpH7-B3 variant S267_10E/GpL16-k0 (antibody, human IgG1, kappa)
heavy 1: not shown
heavy 2: not shown
light: B1 light
B20: GpH7-A5/GpH7-B3 variant S267_01G/GpL16-k0 (antibody, human IgG1, kappa)
heavy 1: not shown
heavy 2: not shown
light: B1 light
B21: GpH7-A5/GpH7-B3 variant V266_07I/GpL16-k0 (antibody, human IgG1, kappa)
heavy 1: not shown
heavy 2: not shown
light: B1 light
B22: GpH7-A5/GpH7-B3 variant V266_08L/GpL16-k0 (antibody, human IgG1, kappa)
heavy 1: not shown
heavy 2: not shown
light: B1 light
B23: GpH7-A5/GpH7-B3 variant S267_02A/GpL16-k0 (antibody, human IgG1, kappa)
heavy 1: not shown
heavy 2: not shown
light: B1 light
B24: GpH7-A5/GpH7-B3 variant S267_09D/GpL16-k0 (antibody, human IgG1, kappa)
heavy 1: not shown
heavy 2: not shown
light: B1 light
B25: GpH7-A5/GpH7-B3 variant V266_06M/GpL16-k0 (antibody, human IgG1, kappa)
heavy 1: not shown
heavy 2: not shown
light: B1 light

T6 sequence (P08637 other isoform, or with tags, fused parts or gaps): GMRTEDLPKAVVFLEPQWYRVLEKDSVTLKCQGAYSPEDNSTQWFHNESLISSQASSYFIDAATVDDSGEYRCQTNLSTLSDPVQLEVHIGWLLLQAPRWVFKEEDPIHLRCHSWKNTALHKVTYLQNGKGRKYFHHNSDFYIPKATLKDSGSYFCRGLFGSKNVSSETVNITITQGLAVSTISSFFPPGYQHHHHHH
T8 sequence (P12314 other isoform, or with tags, fused parts or gaps): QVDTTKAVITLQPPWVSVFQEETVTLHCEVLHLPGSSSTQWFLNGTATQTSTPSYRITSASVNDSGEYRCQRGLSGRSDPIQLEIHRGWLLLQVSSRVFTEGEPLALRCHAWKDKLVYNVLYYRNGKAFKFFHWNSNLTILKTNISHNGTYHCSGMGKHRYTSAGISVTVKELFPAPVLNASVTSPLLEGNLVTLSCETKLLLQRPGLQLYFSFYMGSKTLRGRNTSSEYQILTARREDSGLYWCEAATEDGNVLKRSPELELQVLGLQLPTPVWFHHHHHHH

The target of the first experiment is T1, FcγRIIa(H) (human, UniProt P12318 34-217).
T1 construct: extracellular domain; also called 2aH
T1 sequence: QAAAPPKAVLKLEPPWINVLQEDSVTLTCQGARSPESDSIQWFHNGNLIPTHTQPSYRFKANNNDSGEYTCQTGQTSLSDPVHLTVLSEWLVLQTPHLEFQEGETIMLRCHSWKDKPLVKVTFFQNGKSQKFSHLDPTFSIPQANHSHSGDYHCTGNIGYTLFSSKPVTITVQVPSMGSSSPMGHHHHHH
Description: SPR, relative to GpH7-A5/GpH7-B3/GpL16-k0 =100. (In general: In SPR one partner is held on a chip, and binding of the other changes the refractive index at the surface.)
On to B1, for which the “He/Con 2aH” value was 107%.
On to B2, for which the “He/Con 2aH” value turned out to be 104%.
On the same count and under the same terms, with B3 the figure was 94.4%.
Regarding B4, the “He/Con 2aH” value was found to be 108%.
The same measure, in the same setting: with B5 the figure was 86.1%; with B6, 94.7%; with B7, 67.8%.
Turning to B8, the “He/Con 2aH” value worked out at 124%.
On the same count and under the same terms, with B9 the figure was 89.3%; with B10, 67.9%; with B11, 107%.
With B12, the “He/Con 2aH” value came out at 76.6%.
Still for that read-out and setting: with B13 the figure was 84.4%; with B14, 79%.
Same read-out and setting: with B15 the figure was 79.6%.

In the next experiment the target is T2, FcγRIa (human, UniProt P12314 16-292).
T2 construct: extracellular domain; also called 1a
T2 sequence (P12314 other isoform, or with tags, fused parts or gaps): as the sequence (P12314 other isoform, or with tags, fused parts or gaps) above
Description: SPR, relative to GpH7-A5/GpH7-B3/GpL16-k0 =100.
With B1, the “He/Con 1a” value turned out to be 114%.
Still for that read-out and setting: with B2 the figure was 110%.
On the same count and under the same terms, with B3 the figure was 109%; with B4, 106%.
The same measure, in the same setting: with B5 the figure was 109%.
For the molecule B6, the “He/Con 1a” value is 110%.
The same measure, in the same setting: with B7 the figure was 112%; with B8, 105%; with B9, 106%.
Same read-out and setting: with B10 the figure was 102%; with B11, 109%; with B12, 100%.
On to B13, for which the “He/Con 1a” value is 105%.
Turning to B14, the “He/Con 1a” value was 100%.
For the molecule B15, the “He/Con 1a” value was 98.5%.

In the next experiment the target is T3, FcγRIIb (human, UniProt P31994 43-217).
T3 construct: extracellular domain; also called 2b
T3 sequence: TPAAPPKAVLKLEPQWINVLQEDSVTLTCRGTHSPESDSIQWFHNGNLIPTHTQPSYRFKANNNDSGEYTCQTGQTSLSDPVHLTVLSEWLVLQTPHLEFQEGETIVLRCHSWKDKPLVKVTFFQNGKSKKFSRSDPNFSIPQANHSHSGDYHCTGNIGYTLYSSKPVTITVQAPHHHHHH
Description: SPR, relative to GpH7-A5/GpH7-B3/GpL16-k0 =100.
Consider B1, for which the “He/Con 2b” value came out at 115%.
Turning to B2, the “He/Con 2b” value turned out to be 105%.
Still for that read-out and setting: with B3 the figure was 75.8%; with B4, 175%.
Consider B5, for which the “He/Con 2b” value amounted to 59.2%.
Same read-out and setting: with B6 the figure was 79.6%; with B7, 62.8%; with B8, 214%.
As to B9, the “He/Con 2b” value came to 74.1%.
Take B10: the “He/Con 2b” value came out at 86.3%.
Turning to B11, the “He/Con 2b” value stood at 117%.
For B12, the “He/Con 2b” value came to 98.2%.
As for B13, the “He/Con 2b” value turned out to be 99%.
Same read-out and setting: with B14 the figure was 141%.
Still for that read-out and setting: with B15 the figure was 67.5%.

Another experiment addresses T4, FcγRIIa(R) (human, UniProt P12318 34-217).
T4 construct: extracellular domain; also called 2aR
T4 sequence: T1 sequence with H134R
The experiment is described as follows: SPR, relative to GpH7-A5/GpH7-B3/GpL16-k0 =100.
As for B1, the “He/Con 2aR” value stood at 93.9%.
As to B2, the “He/Con 2aR” value came to 112%.
Same read-out and setting: with B3 the figure was 96%; with B4, 142%.
The same measure, in the same setting: with B5 the figure was 84%; with B6, 99.7%.
The same measure, in the same setting: with B7 the figure was 79.5%; with B8, 159%.
In the case of B9, the “He/Con 2aR” value was 80%.
On to B10, for which the “He/Con 2aR” value stood at 80.6%.
Still for that read-out and setting: with B11 the figure was 122%; with B12, 95.9%; with B13, 98.6%.
B14: the “He/Con 2aR” value was determined as 114%.
For the molecule B15, the “He/Con 2aR” value stood at 77.7%.

A further experiment has as its target T5, FcγRIIa(H) extracellular domain, His-tagged (human, UniProt P12318 34-217).
T5 construct: extracellular domain; also called 2aH
T5 sequence: T1 sequence
Description: SPR, vs GpH7-A5/GpH7-B3/GpL16-k0 =100.
Regarding B16, the “He/Con 2aH” value was 80 % of control.
Still for that read-out and setting: with B17 the figure was 69.7 % of control.
Turning to B18, the “He/Con 2aH” value is 61.9 % of control.
B19: the “He/Con 2aH” value is 103 % of control.
Still for that read-out and setting: with B20 the figure was 72.1 % of control.
Same read-out and setting: with B21 the figure was 107 % of control; with B22, 106 % of control; with B23, 121 % of control.
Same read-out and setting: with B24 the figure was 107 % of control; with B25, 84.8 % of control.

The next experiment has as its target T6, FcγRIIIa extracellular domain, His-tagged (human, UniProt P08637 17-208).
T6 construct: extracellular domain; also called 3a
The experiment is described as follows: SPR, vs GpH7-A5/GpH7-B3/GpL16-k0 =100.
For the molecule B16, the “He/Con 3a” value was 53.8 % of control.
Turning to B17, the “He/Con 3a” value was 56.8 % of control.
On the same count and under the same terms, with B18 the figure was 64.3 % of control; with B19, 90.9 % of control; with B20, 53.3 % of control.
Turning to B21, the “He/Con 3a” value was 113 % of control.
The same measure, in the same setting: with B22 the figure was 117 % of control.
The same measure, in the same setting: with B23 the figure was 149 % of control.
Still for that read-out and setting: with B24 the figure was 179 % of control; with B25, 84.9 % of control.

The next experiment deals with T7, FcγRIIa(R) extracellular domain, His-tagged (human, UniProt P12318 34-217).
T7 construct: extracellular domain; also called 2aR
T7 sequence: T1 sequence with H134R
The experiment is described as follows: SPR, vs GpH7-A5/GpH7-B3/GpL16-k0 =100.
Consider B16, for which the “He/Con 2aR” value is 79.8 % of control.
Still for that read-out and setting: with B17 the figure was 88.8 % of control; with B18, 145 % of control.
Still for that read-out and setting: with B19 the figure was 188 % of control; with B20, 121 % of control; with B21, 129 % of control.
With B22, the “He/Con 2aR” value was 152 % of control.
Regarding B23, the “He/Con 2aR” value was 167 % of control.
For the molecule B24, the “He/Con 2aR” value was 186 % of control.
For B25, the “He/Con 2aR” value was 161 % of control.

A further experiment concerns the target T8, FcγRIa extracellular domain, His-tagged (human, UniProt P12314 16-292).
T8 construct: extracellular domain; also called 1a
The experiment is described as follows: SPR, vs GpH7-A5/GpH7-B3/GpL16-k0 =100.
For the molecule B16, the “He/Con 1a” value was 104 % of control.
On to B17, for which the “He/Con 1a” value was 93.8 % of control.
On to B18, for which the “He/Con 1a” value was 99.2 % of control.
B19: the “He/Con 1a” value is 102 % of control.
On the same count and under the same terms, with B20 the figure was 99.9 % of control.
Same read-out and setting: with B21 the figure was 96.1 % of control; with B22, 94.9 % of control.
For B23, the “He/Con 1a” value is 105 % of control.
For B24, the “He/Con 1a” value was 106 % of control.
Regarding B25, the “He/Con 1a” value was 96.5 % of control.

The next experiment addresses T9, FcγRIIb extracellular domain, His-tagged (human, UniProt P31994 43-217).
T9 construct: extracellular domain; also called 2b
T9 sequence: T3 sequence
The experiment is described as follows: SPR, vs GpH7-A5/GpH7-B3/GpL16-k0 =100.
For the molecule B16, the “He/Con 2b” value was 87.3 % of control.
Take B17: the “He/Con 2b” value is 85.1 % of control.
On the same count and under the same terms, with B18 the figure was 228 % of control.
The same measure, in the same setting: with B19 the figure was 398 % of control; with B20, 110 % of control; with B21, 160 % of control.
For B22, the “He/Con 2b” value was 248 % of control.
The same measure, in the same setting: with B23 the figure was 256 % of control; with B24, 326 % of control; with B25, 264 % of control.
